This note sets out measurements from US20230235054A1 (BIOATLA, published 2023).

Substitutions are numbered along the chain they refer to.

T1: human Nectin-4 on cells (human, UniProt Q96NY8 32-510)
T1 construct: whole, on cells; also called HEK293 cells expressing human Nectin-4; T47D cells that express human Nectin-4
T1 sequence (looked up): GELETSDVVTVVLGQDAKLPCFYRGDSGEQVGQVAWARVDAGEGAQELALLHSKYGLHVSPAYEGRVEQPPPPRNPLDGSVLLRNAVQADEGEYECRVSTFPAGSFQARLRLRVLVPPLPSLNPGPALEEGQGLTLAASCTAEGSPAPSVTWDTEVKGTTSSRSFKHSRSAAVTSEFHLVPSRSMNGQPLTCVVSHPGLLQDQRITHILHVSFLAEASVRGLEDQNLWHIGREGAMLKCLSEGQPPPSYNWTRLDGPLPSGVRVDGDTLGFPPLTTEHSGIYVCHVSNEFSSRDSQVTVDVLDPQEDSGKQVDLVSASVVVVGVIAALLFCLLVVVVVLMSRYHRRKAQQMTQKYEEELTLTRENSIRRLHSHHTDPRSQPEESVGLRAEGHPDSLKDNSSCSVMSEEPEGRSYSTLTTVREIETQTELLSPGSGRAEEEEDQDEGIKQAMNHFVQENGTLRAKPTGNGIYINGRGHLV

T2: huNectin4-His (human, UniProt Q96NY8 32-349)
T2 construct: Immobilized on the SPR chip; also called humanNectin4; human Nectin4; not shown: His tag
T2 sequence (looked up): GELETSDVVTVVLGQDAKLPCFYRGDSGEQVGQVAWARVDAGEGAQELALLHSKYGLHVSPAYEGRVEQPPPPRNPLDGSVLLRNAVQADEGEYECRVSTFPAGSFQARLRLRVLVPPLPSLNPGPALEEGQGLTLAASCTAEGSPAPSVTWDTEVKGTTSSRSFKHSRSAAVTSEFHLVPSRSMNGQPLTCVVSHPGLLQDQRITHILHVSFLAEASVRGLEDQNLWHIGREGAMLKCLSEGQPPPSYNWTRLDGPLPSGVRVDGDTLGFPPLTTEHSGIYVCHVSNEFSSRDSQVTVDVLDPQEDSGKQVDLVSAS

T3: recombinant human Nectin4 antigen (human, UniProt Q96NY8 32-349)
T3 construct: construct not described
T3 sequence (looked up): T2 sequence (looked up)

B1: BAP-143-wildtype (antibody, V domains shown)
VH: EVQLVESGGGLVQPGGSLRLSCAASGFTFSSYNMNWVRQAPGKGLEWVSYISSSSSTIYYADSVKGRFTISRDNAKNSLSLQMNSLRDEDTAVYYCARAYYYGMDVWGQGTTVTVSS
VL: DIQMTQSPSSVSASVGDRVTITCRASQGISGWLAWYQQKPGKAPKFLIYAASTLQSGVPSRFSGSGSGTDFTLTISSLQPEDFATYYCQQANSFPPTFGGGTKVEIK
notes: 150 kDa used in SPR; also called BAP143-00-00; benchmark (BM)
B2: BAP-143-00-03 (antibody, V domains shown)
VH: B1 VH
VL: B1 VL with P96D
notes: Used as a conjugate with a linker payload (CAB ADC)
B3: BAP-143-00-04 (antibody, V domains shown)
VH: B1 VH with M34D
VL: B1 VL
notes: as for B2
B4: BAP-143-00-06 (antibody, V domains shown)
VH: B1 VH with M104D
VL: B1 VL
notes: as for B2
B5: BAP-143-00-01 (antibody, V domains shown)
VH: B1 VH
VL: B1 VL with L33E
notes: as for B2
B6: BAP-143-00-02 (antibody, V domains shown)
VH: B1 VH
VL: B1 VL with F94E
notes: as for B2
B7: BAP-143-00-05 (antibody, V domains shown)
VH: B1 VH with R98E
VL: B1 VL
notes: as for B2

One assay concerns the target T1, human Nectin-4 on cells. Briefly: FACS, HEK293 cells expressing human Nectin-4. How it is done: FACS analysis was carried out using HEK293 cells expressing human Nectin-4.
A general note: In flow cytometry, cells or beads pass a laser one at a time.
Regarding B1, the “Ratio (pH 7.4/6.0) of EC50” value was found to be 1.2.

Consider B2, for which the “Ratio (pH 7.4/6.0) of EC50” value amounted to 2.

Consider B3, for which the “Ratio (pH 7.4/6.0) of EC50” value was 2.1.

As to B4, the “Ratio (pH 7.4/6.0) of EC50” value was determined as 1.2.

On to B5, for which the “Ratio (pH 7.4/6.0) of EC50” value was determined as 3.3.

As for B6, the “Ratio (pH 7.4/6.0) of EC50” value turned out to be 1.6.

As for B7, the “Ratio (pH 7.4/6.0) of EC50” value turned out to be 1.7.

The target of another assay is T2, huNectin4-His. Briefly: SPR, huNectin4-His immobilized, pH 6.0. As to the method:
Binding kinetics of anti-Nectin4 antibodies were measured by surface plasmon resonance using a SPR2/4 instrument (Sierra Sensors, Hamburg, Germany) and flat amine sensor chips. The SPR sensor contained four flow cells (FC1-FC4), each of which was addressed individually or in groups. huNectin4-His was immobilized in FC2, and cynoNectin4-mFc in FC4. No protein was immobilized in FC1 and FC3 which were used as control surfaces for FC2 and FC4, respectively.
All injections were done at a flow rate of 25 μL/min at 25° C. The sensor surface was activated with 1-ethyl-3-(3-dimethylaminopropyl)-carbodiimide (EDC) and N-hydroxysuccinimide (NHS) (200 mM/50 mM) for 480 seconds. HuNectin4-His (2 μg/mL in 10 mM NaAc, pH4.5) was injected for 480s and the surface was inactivated by injecting 1M ethanolamine-HCl for 480s. CynoNectin4 was immobilized using the same conditions as described for huNectin4-His, except that the cynoNectin4 was diluted into 10 mM NaAc buffer having pH 5.0. The control surface was activated and deactivated using the same conditions, but without injecting protein. PBST buffer (PBS pH 7.4 with 0.05% TWEEN20™) was used as running buffer for the surface preparation. The running solution was switched to PBST with 30 mM sodium bicarbonate with the pH adjusted as indicated in the figures before the analyte injections. The instrument was equilibrated with the running solution for one hour before the first analyte injection.
The off-rate was measured for 360s. The chip surface was regenerated after each cycle of interaction analysis by injecting 6 μL of 10 mM glycine (pH 2.0). Flow cells 1 and 3 without immobilized protein were used as control surfaces for reference subtraction.
B1 had a Kd of 1.49 nM.

Consider B2, for which the affinity, expressed as Kd, was 6.02 nM; the koff came out at 0.00122 s⁻¹; the kon was found to be 203000 M⁻¹ s⁻¹.

B3 returned a Kd of 2.58 nM, a koff of 0.00155 s⁻¹ and a kon of 602000 M⁻¹ s⁻¹.

On to B4, for which the Kd was 1.61 nM, the dissociation rate constant (koff) amounted to 0.00114 s⁻¹ and the kon worked out at 707000 M⁻¹ s⁻¹.

With B5, the equilibrium dissociation constant (Kd) was 12.3 nM, the koff was 0.00367 s⁻¹ and the kon amounted to 298000 M⁻¹ s⁻¹.

Molecule B7 registered a Kd of 6.37 nM, a koff of 0.00242 s⁻¹ and a kon of 380000 M⁻¹ s⁻¹.

The target in a further assay is T3, recombinant human Nectin4 antigen. Briefly: pH range ELISA, 30 ng/mL, pH of 50% binding activity. How it is done: 1) Coat ELISA plates with 100 μL of 1 μg/mL recombinant human Nectin4 antigen in carbonate-bicarbonate coating buffer [0462] 2) Cover plates with sealing film and incubate overnight at 4° C. […] 3) Decant plates and tap out residual liquid on a stack of paper towels [0464] 4) Wash wells twice by dispensing 200 μL of various pH incubation buffer to the wells and completely aspirate the contents [0465] 5) Add 200 μL of various pH incubation buffers (pH5.5, 6.0, 6.2, 6.5, 6.7, 7.0 and 7.4) to the wells. Cover with sealing film and place the plate onto a plate shaker (set to 200 rpm) for 60 minutes at room temperature [0466] 6) Decant plates and tap out residual liquid on a stack of paper towels [0467] 7) Serially dilute test substances in various pH incubation buffers (pH5.5, 6.0, 6.2, 6.5, 6.7, 7.0 and 7.4) to 30 ng/mL [0468] 8) Add 100 μL/well of diluted test substances to the plates [0469] 9) Cover with sealing film and place the plates onto a plate shaker (set to 200 rpm) for 60 minutes at room temperature. [0470] 10) Decant plates and tap out residual liquid on a stack of paper towels. […] 12) Dilute the HRP secondary antibody at 1:2500 in various pH incubation buffers (pH5.5, 6.0, 6.2, 6.5, 6.7, 7.0 and 7.4) [0473] 13) Add 100 μL HRP secondary antibody diluted in various pH incubation buffers (pH5.5, 6.0, 6.2, 6.5, 6.7, 7.0 and 7.4) to each well. […] 14) Cover with sealing film and place the plates onto a plate shaker (set to 200 rpm) for 60 minutes at room temperature. [0475] 15) Decant plates and tap out residual liquid on a stack of paper towels. […] 16) Wash wells three times by dispensing 200 μL of various pH wash buffer (pH5.5, 6.0, 6.2, 6.5, 6.7, 7.0 and 7.4) to the wells and completely aspirating the contents [0477] 17) Dispense 50 μL per well of the TMB substrate solution into all wells of plates.
In the case of B2, the pH inflection point is 6.71 pH.

As to B3, the pH inflection point came out at 6.81 pH.

Take B4: the pH inflection point amounted to 6.77 pH.

Consider B5, for which the pH inflection point turned out to be 6.59 pH.

Consider B6, for which the pH inflection point was found to be 6.7 pH.

With B7, the pH inflection point worked out at 6.99 pH.

A word on the Kd: it is the concentration at which binding is half-saturated. Low values mean a tighter complex, high ones a looser complex. By koff is commonly meant the rate constant with which the complex falls apart. The kon is a measure of how fast the partners come together. A low value points to slow association.
